Reference: patent US20240116985A1 (published 2024)
Starred links: 1 amine or outer side, 2 acyl side, 3 side chain; linkers in the order of their positions; H or OH if unused. Positions of bridges follow the written chain, without caps; N, C: chain ends. Non-standard residues stand in square brackets, D forms with d. Primed or numbered codes have the meaning given here. PyrS2″ = (S)-3-amino-1-((pent-4-en-1-yloxy)carbonyl)pyrrolidine-3-carboxylic acid (stapling residue), C=CCCCOC(=O)N1CC[C@@](N[*:1])(C(=O)[*:2])C1; B5(4) = 2,2-bis(4-pentenyl)glycine = 2-amino-2-(pent-4-en-1-yl)hept-6-enoic acid (stitching residue), C=CCCCC(CCCC=C)(N[*:1])C(=O)[*:2]; PyrS2 = (S)-3-amino-1-((pent-4-en-1-yloxy)carbonyl)pyrrolidine-3-carboxylic acid, C=CCCCOC(=O)N1CC[C@@](N[*:1])(C(=O)[*:2])C1; (EtSSEt)AspE = (S)-2-amino-4-(2-(ethyldisulfaneyl)ethoxy)-4-oxobutanoic acid, CCSSCCOC(=O)C[C@H](N[*:1])C(=O)[*:2]; B5(19) = 2-amino-2-(pent-4-en-1-yl)hept-6-enoic acid (bis(4-pentenyl)glycine), C=CCCCC(CCCC=C)(N[*:1])C(=O)[*:2]; B5(3) = 2,2-bis(4-pentenyl)glycine (stitching residue), C=CCCCC(CCCC=C)(N[*:1])C(=O)[*:2]; B5 = 2-amino-2-(pent-4-en-1-yl)hept-6-enoic acid, C=CCCCC(CCCC=C)(N[*:1])C(=O)[*:2]; S6 = (S)-2-amino-2-methyloct-7-enoic acid, C=CCCCC[C@](C)(N[*:1])C(=O)[*:2]; S3 = (S)-2-amino-2-methylpent-4-enoic acid, C=CC[C@](C)(N[*:1])C(=O)[*:2]; Phe(4-CN) = N#Cc1ccc(C[C@H](N)C(=O)O)cc1; Bta = N[C@@H](Cc1csc2ccccc12)C(=O)O; αAllylPro = C=CC[C@@]1(C(=O)O)CCCN1; tBuAla = CC(C)(C)C[C@H](N)C(=O)O; 3Thi = N[C@@H](Cc1ccsc1)C(=O)O; S8 = C=CCCCCCC[C@](C)(N)C(=O)O; hSer = N[C@@H](CCO)C(=O)O; Aib = CC(C)(N)C(=O)O

T1: full-length beta-Catenin (Uniprot ID P35222) (Homo sapiens (Human), UniProt P35222 2-781)
T1 construct: The assay protocols say only 'full-length'; No tag is stated, although the AlphaScreen kit is a Histidine (Nickel Chelate) kit; also called B-Catenin; bCat
T1 sequence: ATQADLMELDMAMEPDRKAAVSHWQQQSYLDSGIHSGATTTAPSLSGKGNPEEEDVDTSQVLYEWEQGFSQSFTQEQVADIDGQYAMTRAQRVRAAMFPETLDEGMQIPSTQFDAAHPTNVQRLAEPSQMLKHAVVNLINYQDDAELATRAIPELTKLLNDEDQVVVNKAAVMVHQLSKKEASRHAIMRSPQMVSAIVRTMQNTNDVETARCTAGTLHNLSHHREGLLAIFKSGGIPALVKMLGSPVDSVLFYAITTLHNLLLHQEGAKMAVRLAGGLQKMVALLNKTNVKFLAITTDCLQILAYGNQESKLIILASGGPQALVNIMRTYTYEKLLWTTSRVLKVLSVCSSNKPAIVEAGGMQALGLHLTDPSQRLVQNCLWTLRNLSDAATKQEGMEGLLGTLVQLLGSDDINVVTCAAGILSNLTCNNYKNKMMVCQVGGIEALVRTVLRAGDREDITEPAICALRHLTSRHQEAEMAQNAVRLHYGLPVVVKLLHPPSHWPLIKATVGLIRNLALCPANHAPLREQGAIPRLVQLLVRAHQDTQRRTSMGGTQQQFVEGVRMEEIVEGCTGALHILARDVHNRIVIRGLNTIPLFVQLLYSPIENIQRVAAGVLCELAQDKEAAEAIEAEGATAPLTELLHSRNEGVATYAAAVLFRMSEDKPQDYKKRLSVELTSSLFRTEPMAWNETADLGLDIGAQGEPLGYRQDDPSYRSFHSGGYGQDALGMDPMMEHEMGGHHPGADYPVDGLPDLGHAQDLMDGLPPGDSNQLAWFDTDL

T2: B-cat-Halo (beta-catenin HaloTag construct expressed in HEK293 cells) (UniProt P35222 1-781)
T2 sequence (looked up): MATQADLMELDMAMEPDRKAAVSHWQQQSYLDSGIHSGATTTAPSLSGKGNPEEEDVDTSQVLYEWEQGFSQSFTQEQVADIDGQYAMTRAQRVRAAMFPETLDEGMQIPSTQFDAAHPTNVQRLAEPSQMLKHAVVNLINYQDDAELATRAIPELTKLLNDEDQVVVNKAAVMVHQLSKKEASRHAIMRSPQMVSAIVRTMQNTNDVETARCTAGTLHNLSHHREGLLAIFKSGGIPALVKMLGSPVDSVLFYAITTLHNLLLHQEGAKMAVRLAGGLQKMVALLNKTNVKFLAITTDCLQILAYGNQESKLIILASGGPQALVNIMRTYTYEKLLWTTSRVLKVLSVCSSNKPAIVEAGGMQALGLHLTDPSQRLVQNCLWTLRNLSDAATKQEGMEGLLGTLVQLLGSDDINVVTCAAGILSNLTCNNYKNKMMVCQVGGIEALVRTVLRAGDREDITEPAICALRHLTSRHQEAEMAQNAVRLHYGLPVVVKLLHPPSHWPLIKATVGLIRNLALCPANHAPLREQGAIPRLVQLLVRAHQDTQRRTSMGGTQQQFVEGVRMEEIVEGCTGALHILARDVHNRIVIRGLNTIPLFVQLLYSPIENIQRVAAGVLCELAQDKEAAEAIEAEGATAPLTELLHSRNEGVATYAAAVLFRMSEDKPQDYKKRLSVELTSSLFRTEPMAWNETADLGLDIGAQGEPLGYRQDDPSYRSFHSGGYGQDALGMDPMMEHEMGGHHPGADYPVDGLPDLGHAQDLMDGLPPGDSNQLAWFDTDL

T3: B-cat-Halo (beta-catenin HaloTag Nano-BRET construct) (UniProt P35222 1-781)
T3 sequence (looked up): T2 sequence (looked up)

T4: beta-catenin in DLD1 TCF/LEF luciferase reporter cells (UniProt P35222 1-781)
T4 sequence (looked up): T2 sequence (looked up)

B1: I-358 (peptide)
peptide: XDAXDDAAFVXFAQ
modifications: not fully specified; N-terminal Ac; C-terminal NH2; PL3 at 1, B5 at 4, S8 at 11 (stapled 1-4 and 4-11)
notes: Stapled peptide composition; Later-eluting isomer composition; also called Ac-PL3-Asp-Ala-B5-Asp-Asp-Ala-Ala-Phe-Val-S8-Phe-Ala-Gln-NH2
B2: I-354 (peptide)
peptide: XDAXDDAAAVXFWQ
modifications: not fully specified; N-terminal Ac; C-terminal NH2; PL3 at 1, B5 at 4, S8 at 11 (stapled 1-4 and 4-11)
notes: Stapled peptide composition; Later-eluting isomer composition; also called Ac-PL3-Asp-Ala-B5-Asp-Asp-Ala-Ala-Ala-Val-S8-Phe-Trp-Gln-NH2
B3: I-359 (peptide)
peptide: Ac-[αAllylPro]DA[B5(19)]DDAAFV[S8][Phe(4-CN)][Bta]Q-NH2
modifications: staple 1-4, 4-11
notes: Stapled peptide composition; also called Ac-PL3-Asp-Ala-B5-Asp-Asp-Ala-Ala-Phe-Val-S8-4CNF-BztA-Gln-NH2

Each binder was assayed against T1, full-length beta-Catenin (Uniprot ID …) (assay: AlphaScreen competition; peptide titrated against full-length beta-catenin + biotin-TCF4(10-53)).
Procedure: Equal volume of the titrated peptide was added to the plate and incubated for 15 minutes at 20° C. Then 4 uL of donor and 4 uL acceptor beads at 10 ug/mL were added to the plate, for a 16 uL reaction pool and protected from light for 60 minutes at 20° C. prior to read. Reads were performed on a CLARIOstar plate reader (BMG Labtech) in duplicate, and data were fitted to a 1:1 binding model with hill slope using an in-house script. All provided concentrations are final concentrations.

With B1 the EC50 was 10 µM.

These binders were tested against T1, full-length beta-Catenin (Uniprot ID …) (assay: fluorescence polarization competition; peptide titrated against full-length beta-catenin + 5FAM-TCF4(10-53) probe).
Procedure: The plate was incubated protected from light for 60 minutes at 20° C. prior to read. Reads were performed on a CLARIOstar plate reader (BMG Labtech) in duplicate, and data were fitted to a 1:1 binding model with hill slope using an in-house script. All provided concentrations are final concentrations.

B2 and B1 are the same in EC50: 5 µM for the first, 5 µM for the second.

B3 was tested, and the EC50 was 5 µM.

These binders were tested against T2, B-cat-Halo (beta-catenin HaloTag …) (assay: cell-based or functional assay).

First: Ac-[αAllylPro]D[tBuAla][B5]DDAAFL[PyrS2][3Thi][Bta]Q-NH2 (staple 1-4, 4-11) [I-801]
Second: Ac-[αAllylPro]D[tBuAla][B5(3)]DDAAF[hSer][PyrS2″][3Thi][Bta]Q-NH2 (staple 1-4, 4-11) [I-803]
The “NanoBRET Abs IC50” value of the first is 1.7-fold lower: 5.8 µM for the first, 9.6 µM for the second.

Compared with Ac-[αAllylPro]D[tBuAla][B5(3)]DDAAFT[PyrS2″][3Thi][Bta]Q-NH2 (staple 1-4, 4-11) [I-809], Ac-[αAllylPro]D[tBuAla][B5]DDAAFN[PyrS2″][3Thi][Bta]T-NH2 (staple 1-4, 4-11) [I-814] is 3.1-fold higher in “NanoBRET Abs IC50” value: 6.1 µM for the first, 18.9 µM for the second.

In the case of Ac-[αAllylPro]D[tBuAla][B5]DDAAFN[PyrS2″][3Thi][Bta]S-NH2 (staple 1-4, 4-11) [I-815], the “NanoBRET Abs IC50” value is reported as 15.4 µM.

What follows are binders tested against T3, B-cat-Halo (beta-catenin HaloTag …) (assay: cell-based or functional assay).

Ac-[αAllylPro][(EtSSEt)AspE][tBuAla][B5(4)]DDAAFL[PyrS2″][3Thi][Bta]Q-NH2 (staple 1-4, 4-11) [I-1963] and Ac-[αAllylPro]D[tBuAla][B5(4)]D[(EtSSEt)AspE]AAFL[PyrS2″][3Thi][Bta]Q-NH2 (staple 1-4, 4-11) [I-1965] are within 1.5-fold of each other in “NanoBRET Abs IC50” value: 25.6 µM for the first, 25.2 µM for the second.

Ac-[αAllylPro]D[tBuAla][S6]DDAAFL[Aib][3Thi][Bta]Q-NH2 (staple 1-4) [I-1978] and Ac-[αAllylPro]D[tBuAla][S3]DDAAFL[Aib][3Thi][Bta]Q-NH2 (staple 1-4) [I-1980] cannot be ordered by “NanoBRET Abs IC50” value: > 20 µM for the first, > 20 µM for the second.

Each binder was assayed against T4, beta-catenin in DLD1 TCF/LEF luciferase … (assay: cell-based or functional assay).

Compared with Ac-[αAllylPro]D[tBuAla][B5]DDAAFL[PyrS2][3Thi][Bta]Q-NH2 (staple 1-4, 4-11) [I-801], Ac-[αAllylPro]D[tBuAla][B5(3)]DDAAF[hSer][PyrS2″][3Thi][Bta]Q-NH2 (staple 1-4, 4-11) [I-803] is 2.1-fold higher in “DLD1 4% Abs IC50” value: 4.3 µM for the first, 9 µM for the second.

Ac-[αAllylPro]D[tBuAla][B5(3)]DDAAFT[PyrS2″][3Thi][Bta]Q-NH2 (staple 1-4, 4-11) [I-809] and Ac-[αAllylPro]D[tBuAla][B5]DDAAFN[PyrS2″][3Thi][Bta]T-NH2 (staple 1-4, 4-11) [I-814] are within 1.5-fold of each other in “DLD1 4% Abs IC50” value: 11.3 µM for the first, 16.5 µM for the second.

For Ac-[αAllylPro]D[tBuAla][B5]DDAAFN[PyrS2″][3Thi][Bta]S-NH2 (staple 1-4, 4-11) [I-815], the “DLD1 4% Abs IC50” value was 10.3 µM.
